Experimental data from patent US20100234450, “Molecular targeting agents” (published 2010).

Columns and labels:
[1] = target: T1, PSMA (prostate-specific membrane antigen) (Homo sapiens, UniProt Q04609 Q04609:1-750); assay: cell binding to PSMA-positive 22Rv1(1.7) cells; conditions: tags: none, endogenous on 22Rv1(1.7) and LNCaP prostate cancer cells, chain copies: 2
[2] = target: T1, PSMA (prostate-specific membrane …); assay: cell binding to PSMA-positive 22Rv1(1.7) cells; Bmax much lower on PSMA-negative 22Rv1(wmr) cells; conditions: tags: none; endogenous on 22Rv1(1.7) and LNCaP prostate cancer cells; chain copies: 2; label: 111In

T1 sequence (Q04609 whole entry, one chain of several): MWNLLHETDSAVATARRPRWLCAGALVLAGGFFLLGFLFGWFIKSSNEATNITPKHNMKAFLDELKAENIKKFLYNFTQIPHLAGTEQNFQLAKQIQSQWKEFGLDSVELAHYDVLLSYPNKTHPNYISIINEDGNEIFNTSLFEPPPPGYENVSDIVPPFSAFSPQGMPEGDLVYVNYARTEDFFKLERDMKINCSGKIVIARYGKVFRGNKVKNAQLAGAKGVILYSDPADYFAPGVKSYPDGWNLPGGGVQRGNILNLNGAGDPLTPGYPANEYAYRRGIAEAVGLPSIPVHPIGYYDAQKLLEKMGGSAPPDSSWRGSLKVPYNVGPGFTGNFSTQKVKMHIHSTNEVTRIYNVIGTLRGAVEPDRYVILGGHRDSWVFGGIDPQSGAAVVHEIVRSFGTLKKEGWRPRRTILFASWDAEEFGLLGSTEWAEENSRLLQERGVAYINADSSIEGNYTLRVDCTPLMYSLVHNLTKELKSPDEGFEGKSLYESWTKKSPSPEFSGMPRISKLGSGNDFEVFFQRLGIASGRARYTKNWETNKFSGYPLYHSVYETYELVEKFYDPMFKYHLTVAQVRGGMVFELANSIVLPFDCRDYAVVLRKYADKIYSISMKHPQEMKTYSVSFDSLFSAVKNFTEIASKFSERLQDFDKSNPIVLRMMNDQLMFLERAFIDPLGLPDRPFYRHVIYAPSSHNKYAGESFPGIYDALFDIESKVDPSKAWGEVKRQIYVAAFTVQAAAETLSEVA

B1: A10-3.2 (32P) (ssRNA)
RNA: GGGAGGACGAUGCGGAUCAGCCAUGUUUACGUCACUCCU
B1 gave a Kd ([1]; label: 5'-32P) of 106 nM.

B2: 64Cu-NOTA-A10-3.2 (ssRNA)
RNA: B1 RNA
modifications: 5'-NOTA chelator via linker
With B2 the Kd ([1]; label: 64Cu) was 131 nM.

B3: 111In-DOTA-A10-3.2 (ssRNA)
RNA: B1 RNA
modifications: 5'-DOTA chelator via linker
B3 was tested, and the Kd [2] was 119 nM.
